# Source: the RNAGym collection of RNA variant scans (doi:10.7554/elife.80360)
# B1: CPEB3 Ribozyme (parent)
# chain: GGGGGCCACAGCAGAAGCGUUCACGUCGCGGCCCCUGUCAGAUUCUGGUGAAUCUGCGAAUUCUGCUGU
# Variants of: B1
# Test: self-cleavage, relative activity (ratio to wild type); higher = more cleavage; co-transcriptional
row,Variant,self-cleavage
1,G5A C63G,0.448
2,C6G A42G,0.324
3,C6A C33A,0.127
4,C6A U38A,0.3
5,G4U A60G,0.302
6,G5A A16C,0.134
7,G5A U62A,0.492
8,G5A U62G,0.447
9,G5U C57G,0.115
10,G5U C57U,0.0743
11,G5C A10U,0.341
12,G4U G58U,0.798
13,C6A G41U,0.225
14,C6A G41C,0.192
15,G5C A13G,0.273
16,G5C A13U,0.172
17,G5C A13C,0.17
18,C6A C39G,0.372
19,G5C G28A,0.134
20,G5U C29U,0.103
21,G4U C29U,0.192
22,G4U C29G,0.1
23,G5C G25A,0.0822
24,G5U U38A,0.235

row,Variant,self-cleavage
1,G5U U38G,0.0473
2,G5C U43A,0.183
3,G4U A40C,0.199
4,C6A G50A,0.708
5,G5U C27A,0.116
6,G5A C39U,0.653
7,G5U A59G,0.139
8,G5U A59C,0.181
9,G5A A15G,0.846
10,C6A U36A,0.128
11,C6A U36G,0.138
12,C6A U49A,0.641
13,G5U A16C,0.042
14,C6A G30C,0.209
15,G5C G58C,0.293
16,G5C G58A,0.198
17,G5U U26C,0.155
18,C6A G56A,0.423
19,C6A G56U,0.44
20,G5A G37A,0.143
21,C6A C35G,0.134
22,C6A C35U,0.27
23,G4U G68A,0.983
24,G4U G68C,0.97

row,Variant,self-cleavage
1,G4U C63U,0.739
2,G4U C63A,0.306
3,C6G A16G,0.127
4,G5C C57U,0.0922
5,G4U C6U,0.31
6,G5A U21G,0.161
7,G4U G50U,0.817
8,G4U G50C,0.764
9,G5U U49G,0.171
10,G5A G30A,0.156
11,G5A G30C,0.156
12,C6A A42U,0.374
13,G5C U62G,0.179
14,G5C U62C,0.141
15,G5C U38A,0.145
16,G5C U38C,0.12
17,G4U G31A,0.0947
18,G5U G37A,0.11
19,G5A U49G,0.781
20,G5A U49C,0.969
21,C6A C7G,0.0736
22,C6A C7U,0.115
23,G5C U20A,0.0824
24,G5C U20C,0.0972

row,Variant,self-cleavage
1,C6A A52C,0.519
2,G5C U26C,0.109
3,C6A U61A,0.217
4,C6A C45A,0.523
5,G4U U62A,0.315
6,C6A C24U,0.195
7,G5U G48A,0.39
8,G5U C24A,0.105
9,C6G A51C,0.154
10,C6G A51G,0.356
11,G5C C12G,0.141
12,G5C C12U,0.256
13,G5U U43C,0.133
14,G5U U43A,0.111
15,G5C G31C,0.0712
16,G5C G31A,0.2
17,G4U G41A,0.265
18,G4U G41U,0.251
19,G5C C6U,0.158
20,G5C C6A,0.0948
21,G5C G14A,0.0874
22,G5C G14C,0.146
23,C6A U64C,0.304
24,G5C C32U,0.703

row,Variant,self-cleavage
1,G5C C32A,0.805
2,G5A C32U,0.992
3,G5A C32G,0.847
4,C6A U55G,0.2
5,C6A U55A,0.396
6,G5C C7U,0.156
7,C6G A52U,0.254
8,C6A G58C,0.567
9,G4U C57A,0.17
10,C6A G11C,0.29
11,G5A U20A,0.0737
12,G5U C34U,0.111
13,G5U U69C,0.749
14,G5U U69A,0.503
15,G4U G48C,0.752
16,G4U G48U,0.813
17,G5A A59U,0.415
18,G5A C6G,0.0495
19,C6A C34G,0.144
20,C6A C34A,0.153
21,C6A A59C,0.221
22,C6A A59U,0.202
23,C6G C9U,0.489
24,G5C A15U,0.15

row,Variant,self-cleavage
1,G5C A15G,0.3
2,G5C A15C,0.113
3,G5U U67C,0.628
4,G5U U67A,0.743
5,C6A C12U,0.581
6,G4U G17C,0.112
7,G4U G17U,0.072
8,G5C A59U,0.14
9,G5C A59C,0.135
10,G5U C12G,0.1
11,G5U C12A,0.112
12,C6A U62G,0.211
13,C6A U62A,0.175
14,C6A G19U,0.131
15,G5C C29G,0.113
16,C6A A15G,0.467
17,C6A A15U,0.176
18,G5A G47U,0.932
19,G5U C6A,0.0825
20,G5U C6G,0.115
21,C6G C22A,0.0965
22,C6G C22G,0.0649
23,C6G C22U,0.106
24,G5A C12U,0.931

row,Variant,self-cleavage
1,C6G A60C,0.0823
2,G4U A42C,0.179
3,C6G A15G,0.212
4,C6G A15U,0.128
5,G5C A40U,0.134
6,C6A U20G,0.161
7,G5A C33U,0.568
8,C6G A8G,0.358
9,G5A G11A,0.785
10,G5U C35U,0.0952
11,G5U C35A,0.0833
12,G5U G65C,0.205
13,G4U C7G,0.0264
14,G4U C7A,0.0496
15,C6G A13C,0.163
16,C6G A13U,0.123
17,G4U C9U,0.954
18,G5U A13C,0.0841
19,G5U G50A,0.309
20,G4U U26A,0.282
21,G4U U26C,0.641
22,G5A U53A,0.74
23,G5A U53C,0.584
24,G5A C18A,0.12

row,Variant,self-cleavage
1,C6A C29G,0.179
2,G5U A8U,0.151
3,G5U G30A,0.0886
4,G5A U36G,0.521
5,G5A U36C,0.831
6,G5C U53A,0.175
7,G5C U53G,0.212
8,G5C U53C,0.151
9,C6A C9U,0.94
10,G5C G48U,0.194
11,G5C G48C,0.245
12,G4U C39G,0.558
13,G4U C39U,0.376
14,G5C A60C,0.171
15,G5C A60U,0.164
16,G5C A60G,0.215
17,C6A C22G,0.155
18,C6G A23U,0.526
19,C6G A23G,0.164
20,C6A C54A,0.282
21,C6A C54G,0.246
22,G5C C54A,0.123
23,G4U C22G,0.0672
24,C6A U43C,0.412

row,Variant,self-cleavage
1,C6A U43A,0.294
2,G4U U43C,0.462
3,G5A A40U,0.719
4,G4U C18A,0.0913
5,G4U G5C,0.105
6,G4U G5A,0.0691
7,G5C C66A,0.202
8,G5C C66G,0.186
9,G5U C9G,0.772
10,C6A U26C,0.333
11,C6A G48A,0.712
12,C6A G48U,0.776
13,G4U U44A,0.532
14,G5A C22A,0.134
15,C6G C7G,0.0901
16,C6G C7A,0.0493
17,G5A C66U,0.88
18,G5C C24A,0.112
19,C6A G17A,0.131
20,G5C G19C,0.0995
21,G5U C22A,0.0283
22,G5U C22U,0.0607
23,G5A G17C,0.0889
24,G5A G17A,0.166

row,Variant,self-cleavage
1,G4U U69C,1.02
2,G4U U69G,0.941
3,G4U G14A,0.257
4,G5C G17U,0.118
5,G5C A42G,0.282
6,C6A A13C,0.262
7,C6A A13U,0.346
8,G5C G11A,0.164
9,G5C G11C,0.147
10,G5A G65U,0.513
11,G5A G48C,0.956
12,G5A G48U,0.939
13,G5A C34U,0.599
14,G5A C34A,0.203
15,G5C C22A,0.107
16,G4U G28U,0.0847
17,G4U G28A,0.0947
18,G5A C9G,0.982
19,G5A C9U,1.02
20,G5U U36C,0.21
21,G5C C27A,0.109
22,G5C C27G,0.0907
23,G5U U61G,0.0827
24,C6G A59U,0.152

row,Variant,self-cleavage
1,G4U G56A,0.466
2,G5C U44G,0.203
3,G5C U44A,0.24
4,G5C C35U,0.162
5,G5C C35G,0.121
6,G5C G50U,0.243
7,G4U G37U,0.128
8,G5U U21G,0.0935
9,G5A C29G,0.175
10,G4U A59G,0.442
11,G5U C33U,0.121
12,G5U C33A,0.0802
13,G5U C33G,0.0433
14,G4U U49C,0.758
15,G4U U49A,0.821
16,G5A G19U,0.197
17,G5U G58A,0.172
18,G5U G58U,0.37
19,G5U G58C,0.2
20,C6A C63U,0.505
21,C6A C63G,0.205
22,G5U A15G,0.19
23,G5U A15C,0.0532
24,G5U A15U,0.092

row,Variant,self-cleavage
1,G5A U46G,0.925
2,G5A U46A,0.907
3,G5U C54G,0.106
4,G5U C54A,0.104
5,G4U U67G,0.921
6,G4U U61G,0.439
7,G4U U61A,0.154
8,G4U C27G,0.0677
9,G5A A23G,0.806
10,G5A A23C,0.766
11,G5C U55G,0.115
12,G5C U55C,0.175
13,G5C A16U,0.169
14,G5C A16G,0.205
15,G5C A16C,0.0946
16,G5U C45G,0.149
17,G4U U21G,0.054
18,G5U C39G,0.0932
19,G5U C39A,0.0897
20,G5A A42C,0.505
21,C6G C12A,0.102
22,C6G C12G,0.253
23,C6G C12U,0.271
24,G4U G30A,0.142

row,Variant,self-cleavage
1,G5C C33U,0.468
2,G5U G56A,0.137
3,G5U G56C,0.163
4,G5U G56U,0.104
5,G4U C66G,0.431
6,G5C U46G,0.235
7,G5C C45A,0.283
8,C6A A8G,0.53
9,G5A G50U,0.906
10,G5A A13G,0.88
11,G5A A13U,0.642
12,G5U G31U,0.0958
13,G5U A52C,0.176
14,G5C G56U,0.131
15,G5C G56C,0.166
16,G5U G14C,0.0568
17,G5A U67A,0.953
18,G4U G65U,0.254
19,G4U G65C,0.411
20,G5U U53A,0.116
21,G5U U53C,0.0878
22,G4U A23C,0.573
23,G4U A23U,0.86
24,G5U,0.316

row,Variant,self-cleavage
1,G5C,0.24
2,G5A,0.933
3,G5C U69C,0.568
4,G5U G11C,0.0768
5,G5U G11A,0.185
6,G5A U55G,0.433
7,G5U C18U,0.063
8,G5C U49C,0.282
9,G5C U49A,0.287
10,G5C U49G,0.282
11,G4U C33G,1
12,G4U U38G,0.114
13,G5U G19A,0.06
14,G5U U55C,0.147
15,G5U G41A,0.12
16,G4U C24U,0.193
17,G5U A40U,0.132
18,G5U A40G,0.171
19,G5U U62G,0.103
20,G5U U62C,0.143
21,C6A U67G,0.835
22,C6G A10C,0.284
